Legend:
Type in all cases: cell-based, human
[1] = system: parental MDA-MB-435 cells; experiment: Chemotactic migration assay (Transwell without Matrigel), parental MDA-MB-435; conditions: transient transfection; conditioned media present, no Matrigel
Procedure: (§1) FIGS. 5A-5B are graphs and immunoblots showing the effects of NFAT1 and NFAT5 over expression on transfected cells. Parental MDA-MB-435 β4-negative cells were transiently transfected with wild-type NFAT-1 (FIG. 5A) tagged with the HA epitope (NFAT-1) or with wild-type NFAT-5 (FIG. 5B) tagged with the myc epitope (NFAT-5) or control vector alone (vector). Following the transfection protocol, cells were assayed for their ability to migrate or to invade Matrigel. Relative migration/invasion were determined by comparing the amount of migration/invasion obtained from NFAT transfectants to that obtained from cells transfected with vector alone, which was assigned a value of 100%. An aliquot of transfected cells was lysed and nuclear extracts were resolved by SDS PAGE and immunoblotted with anti-HA or anti-myc. The data shown are mean values (±SEM) of 3 experiments performed in triplicate.
Increased cell migration was intimately linked with carcinoma invasion. […]
(§2) Invasion assays were performed using standard methods (see Shaw et al., Cell 91:949-960, 1997) using Transwell chambers coated with Matrigel. […] Cells that stained positive for β-galactosidase expression were counted, and the mean of triplicate assays for each experimental condition was used as % relative invasion. […]

[2] = system: parental MDA-MB-435 β4-negative cells; experiment: Matrigel invasion assay, parental MDA-MB-435 cells; conditions: transient transfection, parental MDA-MB-435 (no α6β4)
Procedure: as §1, §2

[3] = system: Clone A colon cancer cell line; experiment: Matrigel chemoinvasion assay, Clone A cells; conditions: transient transfection
Procedure: Invasion assays were performed using standard methods (see Shaw et al., Cell 91:949-960, 1997) using Transwell chambers coated with Matrigel. Briefly, cells were co-transfected with the indicated NFAT constructs, 1 μg EGFP-N1 (Clontech) and 1 μg pCS2-(n)β-Gal, a •gal expression vector (Dave Turner, University of Michigan) using the Lipofectamine procedure (Life Technologies), and after twenty-four hours, the cells were resuspended in serum-free medium containing 0.1% bovine serum albumin (BSA) and added to each well. […] Cells that stained positive for β-galactosidase expression were counted, and the mean of triplicate assays for each experimental condition was used as % relative invasion.

B1: wild-type NFAT-1: wild-type NFAT-1 tagged with the HA epitope, transiently overexpressed (protein)
chain: MNAPERQPQPDGGDAPGHEPGGSPQDELDFSILFDYEYLNPNEEEPNAHKVASPPSGPAYPDDVMDYGLKPYSPLASLSGEPPGRFGEPDRVGPQKFLSAAKPAGASGLSPRIEITPSHELIQAVGPLRMRDAGLLVEQPPLAGVAASPRFTLPVPGFEGYREPLCLSPASSGSSASFISDTFSPYTSPCVSPNNGGPDDLCPQFQNIPAHYSPRTSPIMSPRTSLAEDSCLGRHSPVPRPASRSSSPGAKRRHSCAEALVALPPGASPQRSRSPSPQPSSHVAPQDHGSPAGYPPVAGSAVIMDALNSLATDSPCGIPPKMWKTSPDPSPVSAAPSKAGLPRHIYPAVEFLGPCEQGERRNSAPESILLVPPTWPKPLVPAIPICSIPVTASLPPLEWPLSSQSGSYELRIEVQPKPHHRAHYETEGSRGAVKAPTGGHPVVQLHGYMENKPLGLQIFIGTADERILKPHAFYQVHRITGKTVTTTSYEKIVGNTKVLEIPLEPKNNMRATIDCAGILKLRNADIELRKGETDIGRKNTRVRLVFRVHIPESSGRIVSLQTASNPIECSQRSAHELPMVERQDTDSCLVYGGQQMILTGQNFTSESKVVFTEKTTDGQQIWEMEATVDKDKSQPNMLFVEIPEYRNKHIRTPVKVNFYVINGKRKRSQPQHFTYHPVPAIKTEPTDEYDPTLICSPTHGGLGSQPYYPQHPMVAESPSCLVATMAPCQQFRTGLSSPDARYQQQNPAAVLYQRSKSLSPSLLGYQQPALMAAPLSLADAHRSVLVHAGSQGQSSALLHPSPTNQQASPVIHYSPTNQQLRCGSHQEFQHIMYCENFAPGTTRPGPPPVSQGQRLSPGSYPTVIQQQNATSQRAAKNGPPVSDQKEVLPAGVTIKQEQNLDQTYLDDELIDTHLSWIQNIL
Q: Which chemotactic migration [1] does the source give for B1 here?
A: sufficient to increase chemotactic migration

Q: What about the carcinoma invasion [2] of the same molecule?
A: also induced carcinoma invasion

B2: DBD5: NFAT-5 dominant negative mutant comprising amino acids 175-471 (SEQ ID NO:14) of NFAT5a (protein, listed as Homo sapiens)
chain: GNGTLENQKGTGVKKSPMLCGQYPVKSEGKELKIVVQPETQHRARYLTEGSRGSVKDRTQQGFPTVKLEGHNEPVVLQVFVGNDSGRVKPHGFYQACRVTGRNTTPCKEVDIEGTTVIEVGLDPSNNMTLAVDCVGILKLRNADVEARIGIAGSKKKSTRARLVFRVNIMRKDGSTLTLQTPSSPILCTQPAGVPEILKKSLHSCSVKGEEEVFLIGKNFLKGTKVIFQENVSDENSWKSEAEIDMELFHQNHLIVKVPPYHDQHITLPVSVGIYVVTNAGRSHDVQPFTYTPDPAA
Q: How did the “carcinoma invasion (relative invasion vs vector alone)” value [3] turn out when B2 was run?
A: also inhibited invasion

B3: wild-type NFAT-5: wild-type NFAT-5 tagged with the myc epitope, transiently overexpressed (protein)
chain: MSQTSGGEAGSPPPAVVAADASSAPSSSSMGGACSSFTTSSSPTIYSTSVTDSKAMQVESCSSAVGVSNRGVSEKQLTSNTVQQHPSTPKRHTVLYISPPPEDLLDNSRMSCQDEGCGLESEQSCSMWMEDSPSNFSNMSTSSYNDNTEVPRKSRKRNPKQRPGVKRRDCEESNMDIFDADSAKAPHYVLSQLTTDNKGNSKAGNGTLENQKGTGVKKSPMLCGQYPVKSEGKELKIVVQPETQHRARYLTEGSRGSVKDRTQQGFPTVKLEGHNEPVVLQVFVGNDSGRVKPHGFYQACRVTGRNTTPCKEVDIEGTTVIEVGLDPSNNMTLAVDCVGILKLRNADVEARIGIAGSKKKSTRARLVFRVNIMRKDGSTLTLQTPSSPILCTQPAGVPEILKKSLHSCSVKGEEEVFLIGKNFLKGTKVIFQENVSDENSWKSEAEIDMELFHQNHLIVKVPPYHDQHITLPVSVGIYVVTNAGRSHDVQPFTYTPDPAAAGALNVNVKKEISSPARPCSFEEAMKAMKTTGCNLDKVNIIPNALMTPLIPSSMIKSEDVTPMEVTAEKRSSTIFKTTKSVGSTQQTLENISNIAGNGSFSSPSSSHLPSENEKQQQIQPKAYNPETLTTIQTQDISQPGTFPAVSASSQLPNSDALLQQATQFQTRETQSREILQSDGTVVNLSQLTEASQQQQQSPLQEQAQTLQQQISSNIFPSPNSVSQLQNTIQQLQAGSFTGSTASGSSGSVDLVQQVLEAQQQLSSVLFSAPDGNENVQEQLSADIFQQVSQIQSGVSPGMFSSTEPTVHTRPDNLLPGRAESVHPQSENTLSNQQQQQQQQQQVMESSAAMVMEMQQSICQAAAQIQSELFPSTASANGNLQQSPVYQQTSHMMSALSTNEDMQMQCELFSSPPAVSGNETSTTTTQQVATPGTTMFQTSSSGDGEETGTQAKQIQNSVFQTMVQMQHSGDNQPQVNLFSSTKSMMSVQNSGTQQQGNGLFQQGNEMMSLQSGNFLQQSSHSQAQLFHPQNPIADAQNLSQETQGSLFHSPNPIVHSQTSTTSSEQMQPPMFHSQSTIAVLQGSSVPQDQQSTNIFLSQSPMNNLQTNTVAQEAFFAAPNSISPLQSTSNSEQQAAFQQQAPISHIQTPMLSQEQAQPPQQGLFQPQVALGSLPPNPMPQSQQGTMFQSQHSIVAMQSNSPSQEQQQQQQQQQQQQQQQQQSILFSNQNTMATMASPKQPPPNMIFNPNQNPMANQEQQNQSIFHQQSNMAPMNQEQQPMQFQSQSTVSSLQNPGPTQSESSQTPLFHSSPQIQLVQGSPSSQEQQVTLFLSPASMSALQTSINQQDMQQSPLYSPQNNMPGIQGATSSPQPQATLFHNTAGGTMNQLQNSPGSSQQTSGMFLFGIQNNCSQLLTSGPATLPDQLMAISQPGQPQNEGQPPVTTLLSQQMPENSPLASSINTNQNIEKIDLLVSLQNQGNNLTGSF
Q: Which results are given for B3?
A: chemotactic migration [1]: sufficient to increase chemotactic migration; carcinoma invasion [2]: this was not observed

From US20050100897A1, “NFAT transcription factors in tumor progression” (priority 2002, published 2005)
